# Source: US20230374114A1 (Dana-Farber, published 2023)
# Where a chain is given by its changes, count along the chain named.
# B1: Ab 25 (scFv, V domains shown)
# VH: QVQLVQSGGGLVQPGGSLRLSCAASGFTFSSYWMSWVRQAPGKGLEWVANIKQDGSEKYYVDSVKGRFTISRDNAKNSLYLQMNSLRAEDTAVYYCARGFYYYGAFDIWGQGTTVTVSS
# VL: NFMLTQPHSVSESPGKTVTISCTGSSGSIASNYVQWYQQRPGSAPTTVIYEDNQRPSGVPDRFSGSIGSSSNSASLTISGLKTEDEADYYCQSYDSSNHWVFGGGTKLTVL
# B2: Ab 26 (scFv, V domains shown)
# VH: QVQLVQSGGGLVQPGRSLRLSCAASGFTFDDYAMHWVRQVPGKGLEWVSGIDWNSGVIGYADSVKGRFTISRDNAKNSLYLQMNSLRAEDTALYYCAKDAYSYGFLGAFDIWGQGTMVTVSS
# VL: LPVLTQPPSVSVAPGQTASITCGGDNIRTKGVHWYQQKPGQAPLLVIYYASDRPSGIPERFSGSSSGNTATLTISRVEAGDEADYYCQVWDSSSDLVVFGGGTTLTVL
# B3: Ab 27 (scFv, V domains shown)
# VH: QVQLVQSGTEVKKPGASVKVSCKASGYSFTGSHLHWVRQAPGQGLEWMGWINPDSGVINYAQKFQGRVTLTRDTSISTAYMELSGLRSDDTAVYYCARDKAIGYVWALDYWGQGTLVTVSS
# VL: QSALTQPPSVSGSPGQSVTISCTGTSSDVGTYNRVSWYQQPPGKAPKLMIYEVSNRPSGVSNRFSGSKSGNTASLTISGLQAEDEADYYCSSYTRTFTYVFGTGTKVTVL
# B4: Ab 28 (scFv, V domains shown)
# VH: QVTLKESGPGLVNPSETLSLTCTVSGASISNSFWSWIRQSPGKGLEWIGYTSYSGNSIYNPSLKSRLTMSIDTSKNQLSLNLRSLTAADTAVYYCARREWIKGHFDYWGQGTLVTVSS
# VL: B1 VL with S26G, G68D, H99P, W100V
# B5: S1-RBD-R3-T1-C7 Ab (Ab 29) (scFv, V domains shown)
# VH: QVQLQQSGPGLVKPSQTLSLTCAISGDSVSSYSDAWNWIRQSPSRGLEWLGRTYYRSKWYNDYAVSVKSRITINPDTSKNQFSLQLSSVTPEDTAVYYCAREIVATTPFRNYYYGMDVWGQGTTVTVSS
# VL: NFMLTQPHSVSESPGNTVTISCTRTSGSIASNYVQWYQQRPGSSPTTVIFQDKLRPSGVPDRFSGSIDSSSNSASLTISGLKTEDEADYYCQSYDSSSLWVFGGGTKLTVL
# B6: RBD-R3-E1-A5 Ab (Ab_30) (scFv, V domains shown)
# VH: QVQLVQSGGGVVQPGKSLRLSCTASGFTFSDFPIHWVRQAPGKGLEWVGVISYDGNIKYYGDSVKGRFTISRDNAKNSLYLQMNSLRVEDTAVYYCARGGSSFDIWGQGTTVTVSS
# VL: SYELTQPPSVSEAPRQRVTISCSGSTSNIGNNAVSWYQHLPGKAPKLLIYYNERLPSGVSDRFSGSKSGTSASLAISGLRSEDEADYYCAAWDDSLSGHVVFGGGTKLTVL
# B7: S1-RBD-R3-T1-B12 Ab (Ab_31) (scFv, V domains shown)
# VH: QVQLVQSGAEVKKPGSSVKVSCKASGGTFSSYTISWVRQAPGQGLEWMGGIIPILGTPNYAQKFQDRVAITADKSTSTAYMELSSLRSEDTAVYYCAVGSGWYSGFDYWGQGTLVTVSS
# VL: B1 VL with N53S, G68D, Y94F, D95H, S96N, H99P, W100V, V101I
# B8: RBD-R3-E1-B3 Ab (Ab_32) (scFv, V domains shown)
# VH: QVQLVQSGAEVKKPGESLKISCKGSGYSFTSYWIGWVRQMPGKGLEWMGIIYPGDSDTRYSPSFQGQVTISADKSISTAYLQWSSLKASDTAMYYCARGWQWHDYWGQGTLVTVSS
# VL: QTVVTQEPAVSVALGQTVRITCQGDSLRSYYASWYQQKPGQAPVLVVYDKDKRPSGIPDRFSGSTSGNTASLTITGAQAEDEADYYCNSRDRSDNHVVFGGGTKLTVL
# B9: S1-RBD-R3-T1-D7 Ab (Ab_34) (scFv, V domains shown)
# VH: QVQLVQSGVEVKKPGESLKISCKGSGYSFTSYWIGWVRQMPGKGLEWMGIIYPGDSDTRYSPSFQGQVTISADKSISTAYLQWSSLKASDTAMYYCARTTYSYGSFDYWGQGTLVTVSS
# VL: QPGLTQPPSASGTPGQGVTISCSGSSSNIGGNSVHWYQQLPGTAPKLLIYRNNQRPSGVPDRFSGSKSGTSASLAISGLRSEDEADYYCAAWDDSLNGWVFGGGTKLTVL
# B10: RBD-R3-T1-H3 (Ab_2) (scFv, V domains shown)
# VH: EVQLVQSGAEVKKPGSSVKVSCKTSGYTFTTSGISWVRQAPGQGLEWMGWISAYNGNTNYAQKLQGRVTMTTDTSTSTAYMELRSLRSDDTAVYYCARDFHLYYGMDVWGKGTLVTVSS
# VL: QSALTQPPSASGSPGQSVTISCTGTSSDVGAYNYVSWYQQHPGKAPKLLIYDVTKRPPGVPDRFSGSKSGNTASLTVSGLQAEDEADYYCAVWDDGLNGRVVFGGGTKLTVL
# B11: S1-RBD-R3-T1-E2 (Ab7) (scFv, V domains shown)
# VH: B2 VH
# VL: QPGLTQPPSVSVAPGQTARISCGGNNIGSKSVHWYQQKPGRAPVLVVYEDRGRPSGIPERFSGSNSGNTATLTVSRVEAGDEADYYCQVWDGDSDHYVFATGTKVSIL
# B12: S1-R3-T1-C4 (Ab_8) (scFv, V domains shown)
# VH: QVQLVQSGAEVKKPGSSVKVSCKASGGTFSSYAISWLRQAPGQGLEWMGWINPNSGGTNYAQKFQGRVTMTRDTSISTAYMELSRLRSDDTAVYYCARGSGGYYLGWGQGTLVTVSS
# VL: QPGLTQPPSVSKGLRQTATLTCTGNSNNVGNQGAAWLQQHQGHPPKLLSYMNNNRPPGISERFSASRSGNTASLTITGLQPEDEADYYCSAWDSSLSRWVFGGGTKLSVL
# B13: S1-RBD-R3-T1-F5 (Ab2-7) (scFv, V domains shown)
# VH: QVTLKESGPTRVKPTQTLTLTCTFSGFSLSTTGVGVGWIRQPPGKALEWLALIYWNDDKRYSPSLKSRLTITKDTSKNQVVLTMTNMDPVDTATYYCARISGSGYFYPFDIWGQGTTVTVSS
# VL: B1 VL with G24R, A44S, G68D, T83A, N98S, H99L
# B14: Ab_13 (scFv, V domains shown)
# VH: B13 VH with T10K, R11L, T32S, N56D, T72A, N78Y, T117M, S122A
# VL: B1 VL with G24R, G68D, H99L
# B15: RBD-R3-E1-G7 (Ab2-10) (scFv, V domains shown)
# VH: EVQLVESGPGLVKPSETLSLTCTVSGGSISSYYWSWIRQPAGKGLEWIGRIYTSGSTNYNPSLKSRVTMSVDTSKNQFSLKLSSVTAADTAVYYCARDVGFGWFDRWGQGTLVTVSS
# VL: B1 VL with G24R, A44S, G68D, K82T, Y94F, S97A, N98S, H99L
# B16: S1-R3-T1-H7 (Ab12) (scFv, V domains shown)
# VH: EVQLVESGPGVVSPSATLFLTCSVSGGSIRTHSWNWIRQPPGKPLEWIGFIHHSGATNKNPSLKSRVTISSDTSKNEFSLTLTSVTAADTAVYYCARGPGILSYWSRGTLVTVSS
# VL: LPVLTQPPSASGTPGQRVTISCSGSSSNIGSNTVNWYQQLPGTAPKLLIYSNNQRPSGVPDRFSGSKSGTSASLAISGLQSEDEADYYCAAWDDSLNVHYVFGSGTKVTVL
# B17: S1-RBD-R3-T1-G1 Ab (Ab_35) (scFv, V domains shown)
# VH: EVQLVQSGAEVKKPGESLRISCKASGYSFTSNWIGWVRQMPGKGLEWMGSIFPGDSDTKYSPSFQGQVTISADRSISTAYLQWSGLKASDTAMYYCARESYNAYGSWGQGTLVTVSS
# VL: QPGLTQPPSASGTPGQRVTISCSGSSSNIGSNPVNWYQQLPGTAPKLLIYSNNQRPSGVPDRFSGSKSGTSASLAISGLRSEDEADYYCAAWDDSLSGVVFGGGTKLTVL
# B18: RBD-R3-E1-F5 Ab (Ab_36) (scFv, V domains shown)
# VH: QVQLQQSGPGLVKPSQTLSLTCAIFGDSVTSNSAAWNWIRQSPSRGLEWLGRTYYSSKWYNDYAVSVKSRVTINADTSKNQLSLQLNSVTPEDTAVYYCARGWLRLSFDPWGQGTLVTVSS
# VL: NFMLTQPHSVSESPGKTVTISCTGSSGSIASNYVQWLQQRLGSAPTTVIYEDNQRPSGVPDRFSGSIDSSSNSASLTISGLKTEDEADYYCQSYDPNNHGVVFGGGTKLTVL
# B19: S1-RBD-R3-E1-E8 Ab (Ab 37) (scFv, V domains shown)
# VH: QVQLVQSGAEVKKPGASVKVSCKASGYTFTSYGISWVRQAPGQGLEWMGWISTYNGNTNYAQKLQGRVTMTTDTSTSTAYMEVRSLRSDDTAVYYCARDVFGHFDYWGQGTLVTVSS
# VL: NFMLTQPHSVSESPGKTVLISCTRSSGNIATNYVQWYQQRPGSAPTTVIYEDNQRPSGVPDRFSGSIDSSSNSASLTISGLKTEDEADYYCKSYDDGNHVFGGGTKLTVL
# B20: Ab 38 (scFv, V domains shown)
# VH: QVTLKESGPTLVKPTQTLTLTCTFSGFSLTTSGVSVGWIRQPPGKALEWLALIHWDDDKRYSPSLRSRLTITRDTSKNQVVLTVTDMDPADTGTYYCASFIMTVYAEYFEDWGQGTLVTVSS
# VL: EIVLTQSPATLSVSPGERATLSCRASQSVSSNLAWYQQKPGQAPRLLMYDVSTRATGIPARFSGSGSGTEFSLTISSLQSEDFAVYYCQQRGAWPLTFGGGTKVEIK
# B21: S1-RBD-R3-T1-F9 Ab (Ab_39) (scFv, V domains shown)
# VH: QVTLKESGPTLVKPTQTLTLTCTLSGVSLDTIGMRVSWIRQPPGKALEWLARIDWDDDKFYSTALKTRLTISKDTSKNQVVFTMTSMDPVDTATYYCARSGLLYDLDVWGRGTLVTVSS
# VL: QSVVTQPPSVSGAPGQRVTISCTGSDSDIGANFVQWYQQLPGTAPKLLIWRNTNRPSGVPDRFSASKSGTSASLAITGLQAEDEADYFCQSYDSSLSAYVFGGGTKVTVL
# Molecular target: D614G Spike (SARS-CoV-2, UniProt P0DTC2 16-1213)
row,Binder,Kd [pM]
1,B1,8.56
2,B2,9.97
3,B3,7.53
4,B4,9.41
5,B5,1.04
6,B6,7.43
7,B7,9.03
8,B8,7.26
9,B9,9.15
10,B10,167
11,B11,2.74
12,B12,7.3
13,B13,9.93
14,B14,8.1
15,B15,8.87
16,B16,11.2

# Molecular target: D614G Spike (SARS-CoV2, UniProt P0DTC2 16-1213)
row,Binder,Kd [pM]
1,B17,8.69
2,B18,7.42
3,B19,8.54
4,B20,3.37
5,B21,< 1
